Reference: the nanobody polyreactivity screen of Harvey et al. (2022)

Test: yeast display, Sf9 membrane polyspecificity reagent, FACS + sequencing; frameworks hold sequencing errors
Outline: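 A nanobody's polyreactivity label depends on the gate it was sorted from. Yeast display cells were stained with 10% biotinylated, detergent-solubilized Sf9 membrane reagent for 1 hour at 4 °C, enriched on streptavidin microbeads and sorted by FACS. The low and high (top ~1%) gates were set on anti-HA fluorescence for expression and streptavidin fluorescence for reagent binding.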

Question: For “QVQLVESGGGLVQAGGSLRLSCAASGRTFGSNAMGWFIQAPGKERELVAAISSSDSTNYADSVKGRFTISRDNAKNTVYLQMNSLKPEETAVYYCNAGHPVRSPGYDYWGQGTQVTVSS”, which “polyreactivity (PSR sort gate)” value is on record?
Answer: The value was “low polyreactivity”.

Question: For “QVQLVESGGGLVQAGGSLRLSCAPSGFTFDPYAMGWYRQAPGKERELVAAIDYSGGTTYYADSVKGRFTISRDNAKNTVYLQMNSLKPEDTAVYYCAAEYTYYHWWGYDYWGQGTQVTVSS”, which “polyreactivity (PSR sort gate)” value is on record?
Answer: The value was “high polyreactivity”.

Question: Which “polyreactivity (PSR sort gate)” value does the source give for “QVQLVESGGGLVQAGGSLRLSCAASGFTFSVNAMGWYRQAPGKERELVADIDWSGGSTYYADSVKGRFTISRDNAKNTVYLQMNSLKPEDTAVYYCSADYYSPDSYVQGSSGEYWGQGTQVTVSS” here?
Answer: The value was “low polyreactivity”.

Question: With “QVQLVESGGGLVQAGGSLRLSCAASGFIFTDYAMGWYRQAPGKEREFVAAIDWSGGNTYYADSVKGRFTISRDNAKNTVYLLMNSLKPEDTAVYYCADSGSAREYDYWGQGTQVTVSS” as the sequence, how does the “polyreactivity (PSR sort gate)” value read?
Answer: The value was “low polyreactivity”.

Question: Which “polyreactivity (PSR sort gate)” value does the source give for “QVQLVETGGGLVQAGGSLRLSCAASGRTFWTNAMGWYRQPPGKEREFVAAISWRGASTFYADSVKWRFTISRDNAKNTVYLQMNSLIPEDTAVFYCAAQSRTRSFYGKYDSWGQGNQVTVSS” here?
Answer: Its value is “low polyreactivity”.

Question: For “QVQLVESGGGLVQAGGSLRLSCAASGFTFYLYTMGWYRQAPGKERQLVAAISGSGGSTYYADSVKGRFTISRDNAKITVYLQMNSLKPEDTAVYYCAASPVRVGKVIDRRDYWGQGTQVTVSS”, which “polyreactivity (PSR sort gate)” value is on record?
Answer: The value was “high polyreactivity”.

Question: For “QVQLVESGGGLVQAGGSLRLSCAASGRTFRYYAMGWYRPAPGKERELVAAITISSGSTYYADSVKGRFTISRDNAKNTVYLQMNSLKPEDTAVYYCAATRRYHFDYWGQGTQVTVSS”, which “polyreactivity (PSR sort gate)” value is on record?
Answer: Its value is “high polyreactivity”.

Question: With “PVQLLESGRGLVQAGGRLRLSCAASGINFKYNAMGWYRQAPGKERELVAAISWRGGSTYYADSVKGRFTISRDNAKNTVSLQMNSLKPEDTAVYSCAANLAGSSYYDWGQGTQVTVSS” as the sequence, how does the “polyreactivity (PSR sort gate)” value read?
Answer: Its value is “low polyreactivity”.

Question: For “QVQLVESGGGLVQAGGSLRLSCAASGLTFSYYTMGWYRQAPGKERELVAAISKSAGSTYYADSVKGRFTISRDNAKNTVYLQMNSLKPEDTAVYYCAARFGYQYSYGYNYWGQGTQVTVSS”, which “polyreactivity (PSR sort gate)” value is on record?
Answer: The value was “high polyreactivity”.

Question: Which “polyreactivity (PSR sort gate)” value does the source give for “QVQLVESGVGLVQARGSLRLSCAASGSIFKYYTRRWYRQAPGKERELVSGISYRGGSTYSADSVKGRFTISRDNAKNTVYLQMNSLKPEDTAVYYCYAFLLSGGDYWGQGSQVTVSS” here?
Answer: The value was “high polyreactivity”.

Question: For “QVQLVESVGGLVQAGGSLRLSCAASGSTFIIYAMGWYRQAPGKERELVATISTRGTSTYYADSVKGRFTISRDNEKNTVYLQMKSLKPEDTAVYYCNARRRGYGNRYTFDYWGQGTQVTVSS”, which “polyreactivity (PSR sort gate)” value is on record?
Answer: Its value is “high polyreactivity”.

Question: Which “polyreactivity (PSR sort gate)” value does the source give for “QVQLVESGGGLVQAGGRLRLSCAASGSIFSRNAMGRYRQATGKESELVAAISRGGSTNYADSVKGRFTISRDNAKNTVYLQMNSLKPEDTAVYYCANVGRRSWYRWLGPLWYGGMDYWGQGTQVTVSS” here?
Answer: The value was “low polyreactivity”.

Question: With “QVQLVESGGGLVQAGGSLRLSCAASGSTFRGYAMGWYRQEPGKERELVAAITSGGSTNYADSVKGRFTISRDNAKNTVYLQMISLKPEDTAVYYCNADYTYLYDPNDYWGQGTQVTVSS” as the sequence, how does the “polyreactivity (PSR sort gate)” value read?
Answer: The value was “low polyreactivity”.

Question: With “QVQLVESGGGLVQAGGSLRLSCAASGSISGWYAMGWYRQAPGKERELVADISSIAGSTYYADCVKGRFTISRDNAKNTDSLQKNSLKPEDTAVYYGAADRGVDYEYDYWGQGTQVTVSS” as the sequence, how does the “polyreactivity (PSR sort gate)” value read?
Answer: Its value is “low polyreactivity”.

Question: Which “polyreactivity (PSR sort gate)” value does the source give for “QVQLVESGRGLVQAGCSLRLTCAASGSIFPQYAMGWYRQAPGQERELVAAITRSGGGTHYADSVKGRFTISRDNAKNTVYLQMNSLKPEDTAVYYCAKAGYRSEFEYWGQGTQVTVSS” here?
Answer: Its value is “low polyreactivity”.

Question: For “QVQLVESGGGLVQAGGSLRLSCAASGFSFDSYALGWYRKAPGKERELVAAISRSGGSTYYADSVKGRFTISRDNAKNTVYLQMNSLKPEDTAVYYCARDRDSWGGHDSWGQGTQVTVSS”, which “polyreactivity (PSR sort gate)” value is on record?
Answer: Its value is “high polyreactivity”.

Question: For “QVQLVESGGGLVQAGGSLRLSCAASGSIFESYVMGWYRQAPGKERELVAAISSGGSTYYADSVKGRFTISRDNAKNTVYLQMNSLKPEDTAVYYCNTEVVRFKYDYWGQGTQVTVSS”, which “polyreactivity (PSR sort gate)” value is on record?
Answer: Its value is “low polyreactivity”.

Question: Which “polyreactivity (PSR sort gate)” value does the source give for “QVQLVESGGGLVQAGGSLRLSSASSGRTFYKYAMGWYRQAPGKERELVAAISRRGGSTYYADSVKGRFTISRDNAKNTVYLQMNSLKPEDSAVYYCAAGGSVAFYYWGQGTQVTVSS” here?
Answer: Its value is “high polyreactivity”.

Question: For “QVQLVESGGGLVQAGGSLRLSCAASGSTFKTYAMGWYRQAPGKERELVAAITSSGGRTYYADSVKGRFTISRDNAKNTVYLQMNSLKPEDTAVYYCAAVRRSYNQLDYWGQGTQVTVSS”, which “polyreactivity (PSR sort gate)” value is on record?
Answer: The value was “high polyreactivity”.

Question: Which “polyreactivity (PSR sort gate)” value does the source give for “QVQLVESGGGLVQAGGSLRLSCAASGRTFGRYAMGWYRQAPGKERELVAAINRGGSTKYADSVKGRFTISRDNAKNTVYLQRNSQKPEDSAVYYCAKDLHPALHYDYWGQGTQVTVSS” here?
Answer: Its value is “low polyreactivity”.

Question: For “QVQLVESGGGLVQAGVSLRLSCAASGSIFVHYDMGWYRPAPGKERELVADIDYSGGSTYYADSVKGRFTISRDYAKNTVYLQMNSLKPEDTAVYDCAAERRRWGLDYYYWGQGTQVTVSS”, which “polyreactivity (PSR sort gate)” value is on record?
Answer: Its value is “high polyreactivity”.

Question: Which “polyreactivity (PSR sort gate)” value does the source give for “QVQLVESGGGLVQAGGSLRLSCAASGFIFPTYAMGWYRQAPGKERELVATITTNAGGTHYADSVKGRFTISRDNAKNTVYLQMNSLKPEDTAVYYCAAKQYRPKQRKYWTRIYDYWGQGTQVTVSS” here?
Answer: Its value is “low polyreactivity”.

Question: For “QVQLVESGGGLVQAGGSLSLSCAASGLIFLQYGMGWYREAPGKERELVAAITTRGGRTYYADSVKRRFTISRDNAKNTVYLQMNSLKPEDTAVYYCAADSEQDNLRYYRWVWYYYWGQGTQVTVSS”, which “polyreactivity (PSR sort gate)” value is on record?
Answer: The value was “low polyreactivity”.

Question: For “QVQLVESGGGLVQAGGSLRLTCAASGRTFDYYAMGWYRQAPGKERELVAAIRGSGGSTYYADSVKGRFTISRDNAKNTVYLQMNSLKPEDTAVYYCATDPPYFRTPWEYDYWGQGTQVTVSS”, which “polyreactivity (PSR sort gate)” value is on record?
Answer: The value was “low polyreactivity”.

Question: With “QVQLVESGGGLVQAGGSLRLSCAASGSIFWWNAMGWYRQAPGKERELVASIGDSTYYADSVKGRFTISRDNAKNTVYLQMNSLKPEDTAVYYCYAEVLNYLVFGYQLGYDYWGQGTQVTVSS” as the sequence, how does the “polyreactivity (PSR sort gate)” value read?
Answer: The value was “low polyreactivity”.

Question: For “QVQLVESCGGLVQAGGSLRLSCAASGSIFPFNAMGWYRQAPGKQRELVAAITRSGGSTYYADSVKGRITISRYIAKNSVYLQMNSLKPQDTAVYYCATDPEWPLPAYYYWGQGTQVTVSS”, which “polyreactivity (PSR sort gate)” value is on record?
Answer: Its value is “low polyreactivity”.

Question: For “QVQLVESGGGLVQAGGSLRLSCGASGRTFRRYAIGWYRQAPGKERELVATITSNGGSTYYADSVKGRFTISRDNAKNTVDLQLNSLTPEDTAVYYCARDLTYYRSRYDYWGQGTQVTVSS”, which “polyreactivity (PSR sort gate)” value is on record?
Answer: Its value is “high polyreactivity”.

Question: With “QVQLEESGGGLVQAGGSLRLSCAASGSIFWIYALGWYRQAPGKERELVATITRRGGSTYYADSVKGRFTISRDNAKNTVYLQMNSLKPEDTAVYYCATEPGYTYLTSYKYDYWGQGTQVTVSS” as the sequence, how does the “polyreactivity (PSR sort gate)” value read?
Answer: Its value is “low polyreactivity”.

Question: Which “polyreactivity (PSR sort gate)” value does the source give for “QVQLVESGGGLVQAGGILRLSCAASGFIFGYYGMGWYRQAPGKERELVAAISRSGGGTFYAVSVKGRFTISRDNAKNTVYLQMNSLKPEDTAVYYCNAKYYRKSGLSGAYPYYYWGQGTQVTVSS” here?
Answer: Its value is “high polyreactivity”.

Question: For “QVQLVESGGGLVQAGGSLRLSCAASGRIFPWNAMGWYRQAPGKERDLVAAISFSAGRTYYADSVKGRFTISRDNAKNTVYLQMNSLKPEDTAVYYCNARIGSRWVWTGIIGYEYWGQGTQVTVSS”, which “polyreactivity (PSR sort gate)” value is on record?
Answer: The value was “low polyreactivity”.

Question: Which “polyreactivity (PSR sort gate)” value does the source give for “QVQLVESGGGLVQAGGSLRLSCAASGLTFYYYDMGWYRQAPGKERELVAAITTDGSTNYADSVKGRFTISRDNAKNTVYLQMNSLKPEDTAVYYCAADKYYRYNYWGQGTQVTVSS” here?
Answer: Its value is “high polyreactivity”.

Question: Which “polyreactivity (PSR sort gate)” value does the source give for “QVQLGESGGGLVQAGGSLRLSCAASGRTFGLYAMGWYRQAPGKERELVAAISRGTSTNYADSVKGRFTISRDNAKNTVYLEMYSLKPEDTAVYYCNARRKFVGKWGDYWGQGTQVTVSS” here?
Answer: Its value is “low polyreactivity”.
